Reference: patent US20050037969A1 (ARBOR VITA, published 2005)
Ends that are not written are not given here. * marks the point of attachment. Biotin = O=C1N[C@H]2[C@H](CS[C@H]2CCCCC(=O)*)N1

Columns and labels:
Assay in all cases: A/G assays
[1] = target: T1, GST-TAX-IP43 PDZ domain fusion protein (human, UniProt Q13884 109-180)
T1 construct: also called TAX43; not shown: glutathione S-transferase encoded by vector pGEX-3X (Pharmacia)
T1 sequence: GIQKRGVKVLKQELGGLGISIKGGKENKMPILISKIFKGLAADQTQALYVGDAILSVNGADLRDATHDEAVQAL

[2] = target: T2, GST-TAX-IP2 PDZ domain fusion protein (human, UniProt O14908 129-216)
T2 construct: also called TAX-1P2; TAX2; not shown: glutathione S-transferase encoded by vector pGEX-3X (Pharmacia)
T2 chain: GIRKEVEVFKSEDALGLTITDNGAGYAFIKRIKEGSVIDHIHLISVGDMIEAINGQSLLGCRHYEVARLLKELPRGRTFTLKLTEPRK

[3] = target: T3, GST-PTN-4 PDZ domain fusion protein (Homo sapiens (Human), UniProt P29074 517-605)
T3 construct: also called protein-tyrosine phosphatase meg1; not shown: glutathione S-transferase encoded by vector pGEX-3X (Pharmacia)
T3 sequence: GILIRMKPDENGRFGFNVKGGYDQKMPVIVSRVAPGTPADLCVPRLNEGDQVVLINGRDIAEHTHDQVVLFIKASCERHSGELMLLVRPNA

[4] = target: T4, GST-MPP1 PDZ domain fusion protein (Homo sapiens (Human), UniProt Q00013 67-152)
T4 construct: also called p55; 55 Kd erythrocyte membrane protein; not shown: glutathione S-transferase encoded by vector pGEX-3X (Pharmacia)
T4 sequence: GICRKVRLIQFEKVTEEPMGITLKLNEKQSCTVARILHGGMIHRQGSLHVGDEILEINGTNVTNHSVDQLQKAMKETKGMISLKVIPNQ

[5] = target: T5, GST-AF6 PDZ domain fusion protein (Homo sapiens (Human), UniProt P55196 1001-1093)
T5 construct: also called af-6 protein; not shown: glutathione S-transferase encoded by vector pGEX-3X (Pharmacia)
T5 sequence: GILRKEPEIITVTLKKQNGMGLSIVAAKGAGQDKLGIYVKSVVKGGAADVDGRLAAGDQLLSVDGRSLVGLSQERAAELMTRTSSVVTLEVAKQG

[6] = target: T6, GST-RGS12 PDZ domain fusion protein (human, UniProt O14924 17-85)
T6 construct: also called human regulator of G-protein signalling 12; not shown: glutathione S-transferase encoded by vector pGEX-3X (Pharmacia)
T6 sequence: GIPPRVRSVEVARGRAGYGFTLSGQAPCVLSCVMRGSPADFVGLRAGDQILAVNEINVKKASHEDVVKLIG

[7] = target: T7, GST-TIAM1 PDZ domain fusion protein (Homo sapiens (Human), UniProt Q13009 845-931)
T7 construct: also called TLAM1; T-lymphoma invasion and metastasis inducing protein 1; not shown: glutathione S-transferase encoded by vector pGEX-3X (Pharmacia)
T7 sequence (Q13009 other isoform, or with tags, fused parts or gaps): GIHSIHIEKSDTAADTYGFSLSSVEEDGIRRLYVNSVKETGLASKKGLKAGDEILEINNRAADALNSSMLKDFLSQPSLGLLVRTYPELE

[8] = target: T8, GST-DVL1 PDZ domain fusion protein (human, UniProt O14640 247-339)
T8 construct: also called human dishevelled segment polarity protein homolog; not shown: glutathione S-transferase encoded by vector pGEX-3X (Pharmacia)
T8 sequence: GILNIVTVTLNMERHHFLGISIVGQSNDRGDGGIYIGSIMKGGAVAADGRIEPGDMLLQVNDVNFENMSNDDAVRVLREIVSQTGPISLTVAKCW

[9] = target: T9, GST-KIAA0303 PDZ domain fusion protein (Homo sapiens (Human), UniProt O15021 1138-1228)
T9 construct: also called K303; not shown: glutathione S-transferase encoded by vector pGEX-3X (Pharmacia)
T9 sequence: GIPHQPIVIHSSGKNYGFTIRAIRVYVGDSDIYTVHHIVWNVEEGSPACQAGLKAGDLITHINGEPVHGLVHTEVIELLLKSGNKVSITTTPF

[10] = target: T10, KIAA0807 (PDZ domain)-GST fusion protein (human, UniProt Q6P0Q8 1104-1192)
T10 construct: also called K807; KIAA807; not shown: glutathione S-transferase encoded by vector pGEX-3X (Pharmacia)
T10 sequence: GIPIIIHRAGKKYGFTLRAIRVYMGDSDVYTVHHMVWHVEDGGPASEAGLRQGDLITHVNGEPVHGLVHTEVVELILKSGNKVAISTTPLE

[11] = target: T11, X11β PDZ-GST fusion protein (Rattus norvegicus (Rat), UniProt O35431 560-745)
T11 construct: Order of GST and PDZ part and limits not seen in the excerpts
T11 chain: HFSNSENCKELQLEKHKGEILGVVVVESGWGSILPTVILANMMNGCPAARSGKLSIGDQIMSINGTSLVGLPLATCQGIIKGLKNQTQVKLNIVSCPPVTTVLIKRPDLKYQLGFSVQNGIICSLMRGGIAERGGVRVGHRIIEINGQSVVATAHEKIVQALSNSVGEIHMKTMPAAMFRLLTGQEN

[12] = target: T12, TAX-IP2L PDZ-GST fusion protein (Homo sapiens (Human), UniProt Q8TF64 107-197)
T12 construct: Order of GST and PDZ part and limits not seen in the excerpts
T12 sequence: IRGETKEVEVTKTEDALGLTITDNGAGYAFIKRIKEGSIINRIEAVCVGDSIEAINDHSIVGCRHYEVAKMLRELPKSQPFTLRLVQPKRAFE

[13] = target: T13, TAX-IP33 PDZ-GST fusion protein (Homo sapiens (Human), UniProt O14910 103-193)
T13 construct: Order of GST and PDZ part and limits not seen in the excerpts
T13 sequence: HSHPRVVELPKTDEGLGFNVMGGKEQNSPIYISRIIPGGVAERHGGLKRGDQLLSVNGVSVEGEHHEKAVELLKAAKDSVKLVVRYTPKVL

[14] = target: T14, K316 PDZ-GST fusion protein (Homo sapiens (Human), UniProt Q14CM0 72-159)
T14 construct: Order of GST and PDZ part and limits not seen in the excerpts
T14 sequence (Q14CM0 72-159 limits assumed): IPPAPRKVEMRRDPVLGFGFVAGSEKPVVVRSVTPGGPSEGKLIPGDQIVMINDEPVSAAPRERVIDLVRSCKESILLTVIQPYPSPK

[15] = target: T15, SP short PDZ-GST fusion protein (Homo sapiens (Human), UniProt O43464 350-435)
T15 construct: The label SP short is not explained in the excerpts
T15 sequence: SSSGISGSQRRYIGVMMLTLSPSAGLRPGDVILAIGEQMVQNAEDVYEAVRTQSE

[16] = target: T16, GEF PDZ-GST fusion protein (Homo sapiens (Human), UniProt Q8TEU7 293-400)
T16 construct: The label GEF is not explained in the excerpts
T16 sequence: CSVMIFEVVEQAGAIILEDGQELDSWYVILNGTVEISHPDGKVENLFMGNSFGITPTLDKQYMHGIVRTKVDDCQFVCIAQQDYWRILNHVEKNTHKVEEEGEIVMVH

Measured: binding result

B1: V-gated Ca2+ channel C-terminal peptide AA46L (peptide)
peptide: Biotin-SSGGRARHSYHHPDQDHWC
notes: Marked (S), sticky peptide with high background; also called V-gated Ca2+ channel (S)
not listed: [12] | [13] | [14] | [15] | [16]
no binding: all other assays above

B2: DNAM-1 C-terminal peptide AA22L, biotinylated (peptide)
peptide: Biotin-TREDIYVNYPTFSRRPKTRV
not listed: [4] | [5] | [6]
no binding: all other assays above

B3: BLR-1 C-terminal peptide AA45L, biotinylated (peptide)
peptide: Biotin-PSWRRSSLSESENATSLTTF
notes: also called CXCR5
not listed: [10]
no binding: all other assays above

B4: CD34 C-terminal peptide AA7L, biotinylated (peptide)
peptide: Biotin-QATSENGHSARQHVVADTEL
not listed: [10]
no binding: all other assays above

B5: CDw137 (4-1BB ILA) C-terminal peptide AA21L (peptide)
peptide: Biotin-QEEDGCSCRFPEEEEGGCEL
modifications: cysteine pairing not given here
notes: Marked (S), sticky peptide with high background; also called CDw137 (4-1BB ILA) (S)
not listed: [12] | [13] | [14] | [15] | [16]
no binding: all other assays above

B6: CD46 (Form 1) C-terminal peptide AA10L, biotinylated (peptide)
peptide: Biotin-KKGTYLTDETHREVKFTSL
not listed: [10]
no binding: all other assays above

B7: DOCK2 C-terminal peptide AA40L, biotinylated (peptide)
peptide: Biotin-LASKSAEEGKQIPDSLSTDL
not listed: [10]
no binding: all other assays above
